Test results as given in patent US20200297818A1 (ZEALAND PHARMA A S, published 2020).
Positions count from the first letter of the chain named.

T1: human GLP-2 receptor (hGLP2-R) (human, UniProt O95838 1-553)
T1 sequence (looked up): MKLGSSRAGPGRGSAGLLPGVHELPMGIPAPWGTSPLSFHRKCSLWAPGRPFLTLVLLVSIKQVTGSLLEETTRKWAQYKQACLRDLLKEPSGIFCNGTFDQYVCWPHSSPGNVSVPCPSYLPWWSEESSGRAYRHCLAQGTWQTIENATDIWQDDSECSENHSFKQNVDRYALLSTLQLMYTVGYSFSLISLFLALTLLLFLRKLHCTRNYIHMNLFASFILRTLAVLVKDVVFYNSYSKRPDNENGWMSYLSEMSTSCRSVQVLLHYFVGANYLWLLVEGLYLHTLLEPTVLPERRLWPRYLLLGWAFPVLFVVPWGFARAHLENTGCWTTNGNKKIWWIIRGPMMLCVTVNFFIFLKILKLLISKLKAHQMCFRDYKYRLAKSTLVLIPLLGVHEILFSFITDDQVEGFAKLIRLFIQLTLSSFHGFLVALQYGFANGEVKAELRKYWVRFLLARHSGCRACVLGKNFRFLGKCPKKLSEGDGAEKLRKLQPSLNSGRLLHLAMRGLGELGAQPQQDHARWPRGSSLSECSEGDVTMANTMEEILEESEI

B1: Compound 21 (peptide)
peptide: HXEGTFSSELATILDXQAARDFIAWLIAHKITD
HELM: PEPTIDE1{H.[Aib].E.G.T.F.S.S.E.L.A.T.I.L.D.K.Q.A.A.R.D.F.I.A.W.L.I.A.H.K.I.T.D}|PEPTIDE2{[O=C(O)CCCCCCCCCCCCCCCCC(=O)[*:2]].[gGlu]}$PEPTIDE1,PEPTIDE2,16:R3-2:R2$$$V2.0
SMILES: CC[C@H](C)[C@H](NC(=O)[C@H](CC(C)C)NC(=O)[C@H](Cc1c[nH]c2ccccc12)NC(=O)[C@H](C)NC(=O)[C@@H](NC(=O)[C@H](Cc1ccccc1)NC(=O)[C@H](CC(=O)O)NC(=O)[C@H](CCCNC(=N)N)NC(=O)[C@H](C)NC(=O)[C@H](C)NC(=O)[C@H](CCC(N)=O)NC(=O)[C@H](CCCCNC(=O)CC[C@H](NC(=O)CCCCCCCCCCCCCCCCC(=O)O)C(=O)O)NC(=O)[C@H](CC(=O)O)NC(=O)[C@H](CC(C)C)NC(=O)[C@@H](NC(=O)[C@@H](NC(=O)[C@H](C)NC(=O)[C@H](CC(C)C)NC(=O)[C@H](CCC(=O)O)NC(=O)[C@H](CO)NC(=O)[C@H](CO)NC(=O)[C@H](Cc1ccccc1)NC(=O)[C@@H](NC(=O)CNC(=O)[C@H](CCC(=O)O)NC(=O)C(C)(C)NC(=O)[C@@H](N)Cc1c[nH]cn1)[C@@H](C)O)[C@@H](C)O)[C@@H](C)CC)[C@@H](C)CC)C(=O)N[C@@H](C)C(=O)N[C@@H](Cc1c[nH]cn1)C(=O)N[C@@H](CCCCN)C(=O)N[C@H](C(=O)N[C@H](C(=O)N[C@@H](CC(=O)O)C(=O)O)[C@@H](C)O)[C@@H](C)CC
B2: reference compound A (peptide)
peptide: B1 peptide with E3D, T5S, A28Q
HELM: PEPTIDE1{H.[Aib].D.G.S.F.S.S.E.L.A.T.I.L.D.K.Q.A.A.R.D.F.I.A.W.L.I.Q.H.K.I.T.D}|PEPTIDE2{[O=C(O)CCCCCCCCCCCCCCCCC(=O)[*:2]].[gGlu]}$PEPTIDE1,PEPTIDE2,16:R3-2:R2$$$V2.0
SMILES: CC[C@H](C)[C@H](NC(=O)[C@H](Cc1ccccc1)NC(=O)[C@H](CC(=O)O)NC(=O)[C@H](CCCNC(=N)N)NC(=O)[C@H](C)NC(=O)[C@H](C)NC(=O)[C@H](CCC(N)=O)NC(=O)[C@H](CCCCNC(=O)CC[C@H](NC(=O)CCCCCCCCCCCCCCCCC(=O)O)C(=O)O)NC(=O)[C@H](CC(=O)O)NC(=O)[C@H](CC(C)C)NC(=O)[C@@H](NC(=O)[C@@H](NC(=O)[C@H](C)NC(=O)[C@H](CC(C)C)NC(=O)[C@H](CCC(=O)O)NC(=O)[C@H](CO)NC(=O)[C@H](CO)NC(=O)[C@H](Cc1ccccc1)NC(=O)[C@H](CO)NC(=O)CNC(=O)[C@H](CC(=O)O)NC(=O)C(C)(C)NC(=O)[C@@H](N)Cc1c[nH]cn1)[C@@H](C)O)[C@@H](C)CC)C(=O)N[C@@H](C)C(=O)N[C@@H](Cc1c[nH]c2ccccc12)C(=O)N[C@@H](CC(C)C)C(=O)N[C@H](C(=O)N[C@@H](CCC(N)=O)C(=O)N[C@@H](Cc1c[nH]cn1)C(=O)N[C@@H](CCCCN)C(=O)N[C@H](C(=O)N[C@H](C(=O)N[C@@H](CC(=O)O)C(=O)O)[C@@H](C)O)[C@@H](C)CC)[C@@H](C)CC
B3: Compound 23 (peptide)
peptide: B1 peptide with S7T
HELM: PEPTIDE1{H.[Aib].E.G.T.F.T.S.E.L.A.T.I.L.D.K.Q.A.A.R.D.F.I.A.W.L.I.A.H.K.I.T.D}|PEPTIDE2{[O=C(O)CCCCCCCCCCCCCCCCC(=O)[*:2]].[gGlu]}$PEPTIDE1,PEPTIDE2,16:R3-2:R2$$$V2.0
SMILES: CC[C@H](C)[C@H](NC(=O)[C@H](CC(C)C)NC(=O)[C@H](Cc1c[nH]c2ccccc12)NC(=O)[C@H](C)NC(=O)[C@@H](NC(=O)[C@H](Cc1ccccc1)NC(=O)[C@H](CC(=O)O)NC(=O)[C@H](CCCNC(=N)N)NC(=O)[C@H](C)NC(=O)[C@H](C)NC(=O)[C@H](CCC(N)=O)NC(=O)[C@H](CCCCNC(=O)CC[C@H](NC(=O)CCCCCCCCCCCCCCCCC(=O)O)C(=O)O)NC(=O)[C@H](CC(=O)O)NC(=O)[C@H](CC(C)C)NC(=O)[C@@H](NC(=O)[C@@H](NC(=O)[C@H](C)NC(=O)[C@H](CC(C)C)NC(=O)[C@H](CCC(=O)O)NC(=O)[C@H](CO)NC(=O)[C@@H](NC(=O)[C@H](Cc1ccccc1)NC(=O)[C@@H](NC(=O)CNC(=O)[C@H](CCC(=O)O)NC(=O)C(C)(C)NC(=O)[C@@H](N)Cc1c[nH]cn1)[C@@H](C)O)[C@@H](C)O)[C@@H](C)O)[C@@H](C)CC)[C@@H](C)CC)C(=O)N[C@@H](C)C(=O)N[C@@H](Cc1c[nH]cn1)C(=O)N[C@@H](CCCCN)C(=O)N[C@H](C(=O)N[C@H](C(=O)N[C@@H](CC(=O)O)C(=O)O)[C@@H](C)O)[C@@H](C)CC
B4: Compound 22 (peptide)
peptide: B1 peptide with T5S, S7T
HELM: PEPTIDE1{H.[Aib].E.G.S.F.T.S.E.L.A.T.I.L.D.K.Q.A.A.R.D.F.I.A.W.L.I.A.H.K.I.T.D}|PEPTIDE2{[O=C(O)CCCCCCCCCCCCCCCCC(=O)[*:2]].[gGlu]}$PEPTIDE1,PEPTIDE2,16:R3-2:R2$$$V2.0
SMILES: CC[C@H](C)[C@H](NC(=O)[C@H](CC(C)C)NC(=O)[C@H](Cc1c[nH]c2ccccc12)NC(=O)[C@H](C)NC(=O)[C@@H](NC(=O)[C@H](Cc1ccccc1)NC(=O)[C@H](CC(=O)O)NC(=O)[C@H](CCCNC(=N)N)NC(=O)[C@H](C)NC(=O)[C@H](C)NC(=O)[C@H](CCC(N)=O)NC(=O)[C@H](CCCCNC(=O)CC[C@H](NC(=O)CCCCCCCCCCCCCCCCC(=O)O)C(=O)O)NC(=O)[C@H](CC(=O)O)NC(=O)[C@H](CC(C)C)NC(=O)[C@@H](NC(=O)[C@@H](NC(=O)[C@H](C)NC(=O)[C@H](CC(C)C)NC(=O)[C@H](CCC(=O)O)NC(=O)[C@H](CO)NC(=O)[C@@H](NC(=O)[C@H](Cc1ccccc1)NC(=O)[C@H](CO)NC(=O)CNC(=O)[C@H](CCC(=O)O)NC(=O)C(C)(C)NC(=O)[C@@H](N)Cc1c[nH]cn1)[C@@H](C)O)[C@@H](C)O)[C@@H](C)CC)[C@@H](C)CC)C(=O)N[C@@H](C)C(=O)N[C@@H](Cc1c[nH]cn1)C(=O)N[C@@H](CCCCN)C(=O)N[C@H](C(=O)N[C@H](C(=O)N[C@@H](CC(=O)O)C(=O)O)[C@@H](C)O)[C@@H](C)CC

Target: T1, human GLP-2 receptor (hGLP2-R)
Assay: cell-based or functional assay

**Q.** B1 was tested. Which “EC50 GLP-2 (nM); cAMP response” value did it give?
**A.** 0.27 nM

**Q.** B2 was tested. Which “EC50 GLP-2 (nM); cAMP response” value did it give?
**A.** 0.083 nM

**Q.** B3 was tested. Which “EC50 GLP-2 (nM); cAMP response” value did it give?
**A.** 0.24 nM

**Q.** B4 was tested. Which “EC50 GLP-2 (nM); cAMP response” value did it give?
**A.** 0.2 nM

Target: human glucagon-like peptide 1 receptor (GLP-1 R) (human, UniProt P43220 24-463)
Assay: cell-based or functional assay

**Q.** For B1, which “EC50 GLP-1 (nM); cAMP response” value is on record?
**A.** 1.8 nM

**Q.** Which “EC50 GLP-1 (nM); cAMP response” value does the source give for B2 here?
**A.** 0.49 nM

**Q.** For B3, which “EC50 GLP-1 (nM); cAMP response” value is on record?
**A.** 0.13 nM

**Q.** For B4, which “EC50 GLP-1 (nM); cAMP response” value is on record?
**A.** 0.23 nM
